Laboratory results taken from PMC6625990, “Structural underpinnings of Ric8A function as a G-protein α-subunit chaperone and guanine-nucleotide exchange factor” (Nature Communications, 2019).
Where a chain is given by its changes, count along the chain named. Numbers in names are those of the source. Like-named read-outs stand apart in the source and are kept apart here. Each block holds one molecule with its values, some of them ahead of it.

Key:
[1] = tested on: Gαi; test: GTPγS binding to Gαi (GDP/GTPγS exchange, GEF activity of Ric8A constructs); type: biochemical; conditions: for Rate of GDP/GTPγS exchange reaction on Gαi: same conditions
Description: The rates of GTPγS binding to Gαi in the absence or presence of Ric8A1–492 (Ric8A1–452) were measured by following the increase in fluorescence of Gαi tryptophan. Gαi (1 µM) was mixed with GDP (1 µM) in a fluorescence cuvette, in 20 mM Tris-HCl (pH 8.0) buffer containing 150 mM NaCl, 5% glycerol, 1 mM TCEP and 10 mM MgCl2, and incubated for 2 min. The binding reaction was initiated by addition of Ric8A1–492 or Ric8A1–452 (1 µM each) and/or and GTPγs (10 µM). Fluorescence at 340 nm was monitored with the excitation set at 295 nm. Data were fit to an equation for one phase association using the GraphPad Prism 7.05 software.

[2] = DSF thermostability of Ric8A constructs and Ric8A1–492 mutants (protein alone); type: physicochemical, bovine; conditions: for Tm: Sypro Orange, protein alone 0.5 mg/ml, 20 mM Tris-HCl pH 7.5, 150 mM KCl, 5% glycerol, 1 mM TCEP, 1 °C/minute, mean ± SD (n = 3)
Description: Stabilities of Ric8A constructs with and without peptide ligands were assessed using differential scanning fluorimetry (DSF), in which an increase in fluorescence of the Sypro Orange dye is measured. Ric8A1–492, Ric8A1–452 and Ric8A1–426 in 20 mM Tris-HCl (pH 7.5) buffer containing 150 mM KCl, 5% glycerol, and 1 mM TCEP with and without peptide were used at a final concentration of 0.5 mg/ml and were supplemented with a 1000-fold dilution of Sypro Orange dye (Invitrogen). Temperature was increased at 1 °C/minute and fluorescence signals were recorded using real-time PCR (C1000 Touch thermal cycler, Bio Rad), with the cycler set to FRET mode and the excitation wavelength set at 450–490 nm and the emission wavelength at 560–580 nm.

[3] = tested on: Gαt333–350; test: BLI: Ric8A1–492 and its mutants binding to biotinylated Gαt333–350; conditions: for binding to Gαt333–350 (in words): BLI; for Kd: BLI steady state
Description: (§1) An Octet RED96 system and streptavidin (SA)-coated biosensors (FortéBio, Menlo Park, CA) were used to measure association and dissociation kinetics for Gα peptides or the full-length Avi-tagged Gαt in relation to Ric8A1–492, Ric8A1–452, and Ric8A1–426. To obtain the Avi-tagged Gαt, Gαt was cloned into modified pET21a vector with the N-terminal His6-tag followed by the Avi tag and TEV cleavage site[59]. The Avi-tagged I340Q/N343H mutant of Gαt was prepared by QuikChange protocol. BL21(DE3) cells for expression of the Avi-tagged Gαt were grown in 2TY media supplemented with biotin (10 mg/liter), induced at OD600 of 0.6 with 50 µM IPTG and further grown overnight at 16 °C. Binding studies were performed in 20 mM Tris, 150 mM KCl, 5% glycerol, 1 mM TCEP, 0.5 mg/ml BSA, pH 8.0. All steps were performed at 26 °C, with biosensors stirred into 0.2 ml of sample in each well at 1000 rpm, and at a data acquisition rate of 5.0 Hz. N-terminally biotinylated Gαt333–350, Gαs363–380, C1 peptide and C2 peptide were loaded onto SA sensors at a concentration of 0.05, 0.05, 0.005, and 0.01 mg/ml for 40–90 seconds. Data for association and dissociation phases of the assay were collected as shown in Fig. 1b and Supplementary Figs. 8, 11, 12, and 14. To correct for baseline drift and non-specific binding, reference sensors lacking bound Gα peptide were used in the BLI assays with Ric8A proteins at the highest concentrations. Kinetic data fitting was performed using FortéBio Data Analysis software 10.0. For each concentration of Ric8A1–492, dissociation rate constant (kd) values were calculated from the corresponding dissociation phases of the curves. These kd values were used to calculate the association rate constant (ka) values from the association phases for each concentration according to the equation1 ka=kobserved-kd∕Ric8A1-492 The average ka and kd were calculated as means of the individual ka and kd values for all curves. Equilibrium dissociation constant KD was calculated as mean kd/mean ka. Steady-state data fitting was performed using the GraphPad Prism 7 software with the equation for one site specific binding.

[4] = tested on: Gαt; test: BLI: Ric8A1–492 and its mutants binding to full-length Avi-tagged Gαt
Description: as §1

[5] = source data, experiment 1, read-out: KD (uM), Gαt333-350
[6] = source data, experiment 2, read-out: KD (uM), Gαt333-350
[7] = source data, experiment 3, read-out: KD (uM), Gαt333-350
[8] = source data, mean of replicates, read-out: Mean KD, Gαt333-350
[9] = BLI steady state, source data, experiment 1, read-out: KD (uM), Gαt
[10] = BLI steady state, source data, experiment 2, read-out: KD (uM), Gαt
[11] = BLI steady state, source data, experiment 3, read-out: KD (uM), Gαt
[12] = BLI steady state, source data, mean of replicates, read-out: mean KD, Gαt
[13] = DSF, protein alone, source data, mean of replicates
[14] = DSF, protein alone, source data, replicate 1
[15] = DSF, protein alone, source data, replicate 2
[16] = DSF, protein alone, source data, replicate 3
[17] = DSF, protein alone, source data, replicate 4

Rate of GDP/GTPγS exchange reaction on Gαi, mean ([1]; Gαi 1 µM, GDP 1 µM, Ric8A construct 1 µM, GTPγS 10 µM, 20 mM Tris-HCl pH 8.0, 150 mM NaCl, 5% glycerol, 1 mM TCEP, 10 mM MgCl2, tryptophan fluorescence ex 295 nm, em 340 nm, one phase association fit, mean): 0.03238
Rate of GDP/GTPγS exchange reaction on Gαi ([1]; replicate 1): 0.03221
Rate of GDP/GTPγS exchange reaction on Gαi ([1]; replicate 2): 0.04368
Rate of GDP/GTPγS exchange reaction on Gαi ([1]; replicate 3): 0.02126
B1: Ric8A1–452: bovine Ric8A construct, residues 1–452 (protein)
chain: MEPRAVADALETGEEDVVMEALRAYNRENSQSFTFDDAQQEDRKRLAKLLVSVLEQGLPPSRRVIWLQSIRILSRDRSCLDSFTSRRSLQALACYAGISASQGSVPEPLNMDVVLESLKCLCNLVLSSPVAQALAAEAGLVVRLAERVGLCRQSSFPHDVQFFDLRLLFLLTALRTDVRQQLFQELQGVRLLTRALELTLGMTEGERHPELLPPQETERAMEILKVLFNITFDSIKREVDEEDAALYRHLGTLLRHCVMLAAAGDRTEELHGHAVNLLGNLPVKCLDVLLTLEPHEGSLEFLGVNMDVIRVLLSFMEKRLHQTHRLKESVAPVLSVLTECARMHRPARKFLKAQVLPPLRDVRTRPEVGELLRNKLVRLMTHLDTDVKRVAAEFLFVLCSESVPRFIKYTGYGNAAGLLAARGLMAGGRPEGQYSEDEDTDTDEYKEAKASI
modifications: left off: His6, N-terminal, state not stated
Tm ([2]; DSF): 45.5 ± 0.1 °C
Tm ([2]; DSF, listed as Ric8A1-452): 45.5 °C

binding to Gαt333–350 (in words) [3]: severely impaired the interaction
Kd ([3]; mean ± SD, n = 3, ND – not detectable, read-out: KD (μM) Gαt333–350): > 10 µM
Kd [3, 5]: 23.8 µM
Kd [3, 6]: 26.9 µM
Kd [3, 7]: 26.8 µM
Kd [3, 8]: > 10 µM
binding to Gαt (in words) ([4]; BLI): severely reduced affinity
Kd ([4]; BLI steady state, mean ± SD, n = 3, ND – not detectable, read-out: KD (μM) Gαt): > 10 µM
Kd [4, 9]: 11.2 µM
Kd [4, 10]: 11.5 µM
Kd [4, 11]: 15.1 µM
Kd [4, 12]: > 10 µM
Kd ([4]; BLI, representative curve (Fig. 3g), read-out: KD, steady-state binding curve, Gαt): > 10 µM
B2: A173W: A173 mutant of Ric8A1–492, printed A173W in figures and source data, A173F in text (protein)
chain: MEPRAVADALETGEEDVVMEALRAYNRENSQSFTFDDAQQEDRKRLAKLLVSVLEQGLPPSRRVIWLQSIRILSRDRSCLDSFTSRRSLQALACYAGISASQGSVPEPLNMDVVLESLKCLCNLVLSSPVAQALAAEAGLVVRLAERVGLCRQSSFPHDVQFFDLRLLFLLTFLRTDVRQQLFQELQGVRLLTRALELTLGMTEGERHPELLPPQETERAMEILKVLFNITFDSIKREVDEEDAALYRHLGTLLRHCVMLAAAGDRTEELHGHAVNLLGNLPVKCLDVLLTLEPHEGSLEFLGVNMDVIRVLLSFMEKRLHQTHRLKESVAPVLSVLTECARMHRPARKFLKAQVLPPLRDVRTRPEVGELLRNKLVRLMTHLDTDVKRVAAEFLFVLCSESVPRFIKYTGYGNAAGLLAARGLMAGGRPEGQYSEDEDTDTDEYKEAKASINPVTGRVEEKPPNPMEGMTEEQKEHEAMKLVNMFDKLSRH
modifications: left off: His6, N-terminal, state not stated
mean Tm [2, 13]: 45.6 C
Tm (C ) [2, 14]: 45.57 C
Tm (C ) [2, 15]: 45.54 C
Tm (C ) [2, 16]: 45.74 C
Tm (C ) [2, 17]: 45.49 C

binding to Gαt333–350 (in words) [3]: severely impaired the interaction
Kd [3, 5]: 2.04 µM
Kd [3, 6]: 1.89 µM
Kd [3, 7]: 1.45 µM
Kd ([3]; source data, experiment 4, read-out: KD (uM), Gαt333-350): 1.89 µM
Kd [3, 8]: 1.8 µM
binding to Gαt (in words) ([4]; BLI): severely reduced affinity
Kd [4, 9]: 2.04 µM
Kd [4, 10]: 1.84 µM
Kd [4, 11]: 1.66 µM
Kd [4, 12]: 1.8 µM
B3: F169R: F169R mutant of Ric8A1–492 (protein)
chain: B2 chain with F169R, F173A
modifications: left off: His6, N-terminal, state not stated
mean Tm [2, 13]: 45.6 C
Tm (C ) [2, 14]: 45.84 C
Tm (C ) [2, 15]: 45.62 C
Tm (C ) [2, 16]: 45.65 C
Tm (C ) [2, 17]: 45.38 C

binding to Gαt333–350 (in words) [3]: ablated the binding
binding to Gαt (in words) ([4]; BLI): no Gαt binding was detected
B4: N123E: N123E mutant of Ric8A1–492 (protein, UniProt Q5E9J8 1-492, looked up, variant N123E)
chain: B2 chain with N123E, F173A
modifications: residues 1-492
mean Tm [2, 13]: 46.7 C
Tm (C ) [2, 14]: 46.78 C
Tm (C ) [2, 15]: 46.59 C
Tm (C ) [2, 16]: 46.65 C
Tm (C ) [2, 17]: 46.83 C

B5: Ric8A1–426: bovine Ric8A construct lacking the C-terminal region, residues 1–426 (protein)
chain: MEPRAVADALETGEEDVVMEALRAYNRENSQSFTFDDAQQEDRKRLAKLLVSVLEQGLPPSRRVIWLQSIRILSRDRSCLDSFTSRRSLQALACYAGISASQGSVPEPLNMDVVLESLKCLCNLVLSSPVAQALAAEAGLVVRLAERVGLCRQSSFPHDVQFFDLRLLFLLTALRTDVRQQLFQELQGVRLLTRALELTLGMTEGERHPELLPPQETERAMEILKVLFNITFDSIKREVDEEDAALYRHLGTLLRHCVMLAAAGDRTEELHGHAVNLLGNLPVKCLDVLLTLEPHEGSLEFLGVNMDVIRVLLSFMEKRLHQTHRLKESVAPVLSVLTECARMHRPARKFLKAQVLPPLRDVRTRPEVGELLRNKLVRLMTHLDTDVKRVAAEFLFVLCSESVPRFIKYTGYGNAAGLLAARGLMA
modifications: left off: His6, N-terminal, state not stated
Tm ([2]; DSF): 36.5 ± 1.1 °C
mean Tm ([2]; Suppl Fig 14B DSF, mean of 3 experiments, SD 1.1): 36.5 C
